Data published in patent US20250346669A1 (DEUTSCHES KREBSFORSCHUNGSZENTRUM STIFTUNG DES FFENTLICHEN …, published 2025).

Tests used:
[1] = molecular target: T1, human prostate specific membrane antigen (PSMA) (human, UniProt Q04609 1-750); experiment: flow cytometry on PSMA-expressing 22RV1 cells
T1 construct: whole, on cells; also called PMSA; FOLH1
Procedure: To this end, the cells were incubated with the indicated antibodies in 96 well plates for 30-45 min at 4° C. Upon incubation cells were washed and incubated with a secondary PE-goat-anti-human FC-γ specific fragment (Jackson ImmunoResearch). Cells were analyzed on a FACSCalibur (BD Biosciences).

[2] = molecular target: T1, human prostate specific membrane …; experiment: in vivo biodistribution of radioisotope labeled CC-1 in mice with 22Rv1 (PSMA positive) or DU145 (PSMA negative) tumors
[3] = molecular target: T1, human prostate specific membrane …; experiment: flow cytometry on PSMA-transfected Sp2/0 cells
Procedure: Binding (FIG. 5A), lack of binding competition (FIG. 5B) and shift of the PSMA antigen upon antibody binding (FIG. 5C) was assessed by flow cytometry using PSMA-transfected Sp2/0 cells. To this end different α-PSMA antibodies were incubated with these cells in 96-well plates for 30-45 min at 4° C. Cells were then washed and incubated with a PE-conjugated goat-anti-mouse F(ab)₂ fragment (FIGS. 5A, 5C) (Jackson ImmunoResearch) or a PE-goat-anti-human FC-γ specific fragment (Jackson ImmunoResearch) (B). Cells were analyzed on a FACSCalibur (BD Biosciences). […] For the determination of antigen shift (FIG. 5C) PSMA expressing cells were incubated with the indicated antibodies at the beginning of the experiment and again after 24 hrs and before FACS analysis with a saturating amount (10 μg/ml) of the respective antibody. PSMA expression by untreated cells served as a reference (100% PSMA expression)

B1: PSMA (humanized h10B3) x CD3 (murine OKT3) bispecific Fabsc format antibody molecule (bispecific antibody, IgG1)
heavy: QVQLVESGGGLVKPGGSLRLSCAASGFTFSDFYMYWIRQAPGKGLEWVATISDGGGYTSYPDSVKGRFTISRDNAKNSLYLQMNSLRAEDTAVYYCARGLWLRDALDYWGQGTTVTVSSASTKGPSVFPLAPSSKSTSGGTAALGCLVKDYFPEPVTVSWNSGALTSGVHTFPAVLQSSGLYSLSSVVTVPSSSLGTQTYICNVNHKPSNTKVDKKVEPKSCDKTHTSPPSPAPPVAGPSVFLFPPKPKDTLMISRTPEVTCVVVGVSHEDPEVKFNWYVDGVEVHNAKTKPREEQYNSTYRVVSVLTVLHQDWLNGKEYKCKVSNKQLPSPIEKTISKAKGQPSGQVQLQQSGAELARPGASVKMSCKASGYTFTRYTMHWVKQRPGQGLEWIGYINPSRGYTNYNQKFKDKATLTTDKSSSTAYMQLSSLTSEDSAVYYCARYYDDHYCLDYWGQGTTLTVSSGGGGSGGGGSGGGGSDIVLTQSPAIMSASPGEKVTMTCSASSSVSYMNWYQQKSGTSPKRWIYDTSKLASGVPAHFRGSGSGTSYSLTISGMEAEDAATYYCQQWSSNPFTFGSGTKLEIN
light: EIVLTQSPATLSLSPGERATLSCSASSSISSNYLHWYQQKPGQAPRLLIYRTSNLASGIPARFSGSGSGTDYTLTISRLEPEDFAVYYCQQGSYIPFTFGQGTKLEIKRTVAAPSVFIFPPSDEQLKSGTASVVCLLNNFYPREAKVQWKVDNALQSGNSQESVTEQDSKDSTYSLSSTLTLSKADYEKHKVYACEVTHQGLSSPVTKSFNRGEC
notes: Heavy chain: h10B3 VH, IgG1 CH1, hinge, modified CH2, beginning of CH3, murine OKT3 scFv; also called h10B3xOKT3 Fabsc
- binding result [1]: binds

B2: PSMA (humanized h10B3) x CD3 (humanized hUCHT1) bispecific IgGsc format antibody molecule (bispecific antibody)
heavy: QVQLVESGGGLVKPGGSLRLSCAASGFTFSDFYMYWIRQAPGKGLEWVATISDGGGYTSYPDSVKGRFTISRDNAKNSLYLQMNSLRAEDTAVYYCARGLWLRDALDYWGQGTTVTVSSASTKGPSVFPLAPSSKSTSGGTAALGCLVKDYFPEPVTVSWNSGALTSGVHTFPAVLQSSGLYSLSSVVTVPSSSLGTQTYICNVNHKPSNTKVDKKVEPKSCDKTHTCPPCPAPPVAGPSVFLFPPKPKDTLMISRTPEVTCVVVGVSHEDPEVKFNWYVDGVEVHNAKTKPREEQYNSTYRVVSVLTVLHQDWLNGKEYKCKVSNKQLPSPIEKTISKAKGQPREPQVYTLPPSRDELTKNQVSLTCLVKGFYPSDIAVEWESNGQPENNYKTTPPVLDSDGSFFLYSKLTVDKSRWQQGNVFSCSVMHEALHNHYTQKSLSLSPGKSGDIQMTQSPSSLSASVGDRVTITCRASQDIRNYLNWYQQKPGKAPKLLIYYTSRLESGVPSRFSGSGSGTDYTLTISSLQPEDFATYYCQQGNTLPWTFGQGTKVEIKGGGGSGGGGSGGGGSEVQLVESGGGLVQPGGSLRLSCAASGYSFTGYTMNWVRQAPGKGLEWVALINPYKGVSTYNQKFKDRFTISVDKSKNTAYLQMNSLRAEDTAVYYCARSGYYGDSDWYFDVWGQGTLVTVSS
light: B1 light
notes: also called CC-1; PSMAxCD3 (h10B3xUCHT1)-IgGsc
- binding result [2]: binds

B3: murine antibody 10B3 (antibody, IgG2b, V domains shown)
VH: QVQLQESGGGLVKPGGSLKLSCAASGFTFSDFYMYWVRQTPEKRLEWVATISDGGGYTSYPDSVKGRFTISRDIAKNNLYLQMNSLKSEDTAKYYCARGLWLRDALDYWGQGTSVTVSS
VL: EIVLTQSPITMAAFLGERITITCSASSSISSNYLHWYQQKPGFSPKLLIYRTSNLASGVPIRFSGSGSGTSYSLTIGTMEAEDVATYYCQQGSYIPFTFGSGTKLEIKR
notes: Mouse hybridoma antibody, isotype IgG2b/kappa; also called mu 10B3; m10B3
- binding result [3]: binds
